# From the RNAGym collection of RNA variant scans (doi:10.7554/elife.90254)
# B1: OR4K15 (parent)
# chain: GUUAACGGUCAUAGGCCAUGGAAACUAGGAGCACCAUUUCGCUGCCAGUGAAGAAAUGAACAAAGAAAAUCUGGGCCAGGCAGGCAUCAAAAGAAAUAGUCUUGCGCUCAACCAGAAAGUCUGUAAUCAUUUUAAGGGUA
# Variants of: B1
# Assay: self-cleavage, relative activity (ratio to wild type); higher = more cleavage; in vitro, sequencing; the parent is a self-cleaving ribozyme
row,Variant,self-cleavage
1,A66G A114G,0.48
2,A66G A114C,0.06
3,A64G A98C,1.73
4,A64U U102C,2.23
5,A64U U102A,1.07
6,A62G U120A,1.1
7,A67G A95G,2.37
8,A63U U100C,2.04
9,A62U U97C,0.96
10,A64G A114G,0.31
11,A64G A114U,0.1
12,A62U A95G,2.47
13,A62G G106A,0.01
14,A62U U132C,1.48
15,A62G G115U,0.07
16,A66U A95G,1.87
17,A63G U102G,0.54
18,A63G U102C,1.43
19,A63G U102A,1.39
20,G65A A91G,0.96
21,A63U A134G,0.32
22,A64G A110U,1.1
23,A64G A78G,0.28
24,A67G A98G,0.36

row,Variant,self-cleavage
1,A64G A125G,0.28
2,A64G A125U,2.92
3,A64G A140U,1.37
4,A66G G104A,0.03
5,A66G G104U,0.02
6,A66U A114U,0.04
7,A66G A92U,1.98
8,A62U U139C,1.82
9,A62U U139A,1.78
10,A66U A91G,0.65
11,A67G A135G,2.06
12,A63G A92U,1.35
13,A64U A90G,0.32
14,A62U U120C,1
15,A62U U120A,2.24
16,A64G A118C,0.2
17,A62U A111G,0.02
18,A62U G136A,1.59
19,A64G U127C,0.86
20,A63G A64U,1.62
21,A63G A64G,1.37
22,A63G C85U,1.21
23,A63G A91U,2.36
24,A66G A96G,1.87

row,Variant,self-cleavage
1,A66U U87C,0.42
2,A63G A125C,1.23
3,A64C C76U,0.26
4,A67C U131C,1.86
5,A64G U102C,2.06
6,A66U U124C,1.25
7,A63G U127G,2.41
8,A67G A94G,1.74
9,A67G A94U,1.92
10,A66U A69G,1.06
11,A64G G75U,0.12
12,A64G U103C,1.2
13,A63G A98U,2.55
14,A63U A94U,1.96
15,A64C,1.69
16,A64U,1.23
17,A64G,1.2
18,A63C A140G,1.96
19,A63G C109U,0.69
20,A63G C109A,0.55
21,A63G A134G,1.47
22,A63G A86U,2.04
23,A62G U108C,0.02
24,A64G A68U,1.42

row,Variant,self-cleavage
1,A63U A90U,1.93
2,A62G G136U,1.1
3,A62G G136A,2.2
4,A64G U97C,1.63
5,A64G C77U,1.43
6,A66U U139A,2.31
7,A64U A110G,0.11
8,A62U A78G,0.28
9,A62U A78U,0.33
10,A66G A69C,1.67
11,A66G A69G,1.02
12,A67G A111G,0.02
13,A66U U130C,1.34
14,A64C A116G,0.83
15,A66G A117G,1.88
16,A66G A117U,0.6
17,A63G A117G,1.69
18,A62G U131C,1.29
19,A66G G80C,0.12
20,A66G U127C,1.11
21,A63G A140G,2.02
22,A63G A140U,1.52
23,A67G C101A,0.19
24,A62U G74A,0.41

row,Variant,self-cleavage
1,A66C C113A,0.02
2,A64G U70C,0.57
3,A64U U122A,1.78
4,A64U G123A,2.31
5,A64U A116G,0.21
6,A63C G74U,0.15
7,A67G A118U,0.81
8,A67G A118G,0.95
9,A64G A96C,0.76
10,A63G U103G,0.01
11,A66G U120G,2.47
12,A66G U120A,1.73
13,A66G A82G,0.26
14,A63U U120C,1.25
15,A66G A90G,1.17
16,A64G U108A,0.01
17,A66U A110G,0.14
18,A62U A118G,1.9
19,A66C A67G,0.46
20,A62U A91G,0.94
21,A64G C101U,0.42
22,A66G U130G,0.2
23,A66G U130C,1.68
24,A66G U102C,1.84

row,Variant,self-cleavage
1,A67G A125G,0.57
2,A64U A82U,0.19
3,G65U A111G,0.06
4,A62U A89G,1.95
5,A62U A89U,1.93
6,A66U A89U,0.62
7,A63G A116U,0.57
8,A63G A116C,0.13
9,A64U A89U,0.92
10,A64G G106A,0.04
11,A63U A96G,1.74
12,A66U A129U,0.61
13,A66U A129G,0.39
14,A64C C105U,0.17
15,A67G A86U,2.13
16,A63C G79A,0.09
17,A67G A129U,1.03
18,A67G A129C,1.2
19,A67G A129G,0.85
20,A64C A94G,2.25
21,A63G U132C,1.67
22,A64C G137A,1.49
23,A63C G83U,0.83
24,A62U G84C,0.25

row,Variant,self-cleavage
1,G65A A66G,1.13
2,A66G G136A,1.72
3,A66G A118C,1.11
4,A66G A118G,2.17
5,A66G U108C,0.02
6,A66G U108A,0.02
7,A64C G75C,0.21
8,A63U U130C,0.28
9,A63U U122C,1.57
10,G65A A78G,0.2
11,A64G A94U,1.61
12,A64G A94G,1.74
13,A64U A94U,1.63
14,A63C U131C,1.99
15,A66G G75A,0.08
16,A67G A92G,1.31
17,A67G A92C,1.62
18,A64G A135U,1.28
19,A66U C81U,0.05
20,A63U A86G,2.75
21,A63G U139A,1.74
22,A63G U124A,0.72
23,A63G U70A,1.47
24,A63G U70G,1.56

row,Variant,self-cleavage
1,A63G U70C,1.08
2,A63U A64G,0.94
3,A64G A129U,0.99
4,A64G A129G,1.14
5,A64G A129C,1.8
6,A67G A69G,0.77
7,A64C U102A,0.71
8,A62G U100C,2.17
9,A62G U100A,1.12
10,A63G G106U,0.02
11,A66G A78U,0.5
12,A64U U127C,1.66
13,A62G U122A,1.07
14,A64U A117G,1.18
15,A66G C77A,0.91
16,A62G U87C,0.88
17,A62G U87A,1.71
18,A67G C77A,0.71
19,A66U G80A,0.05
20,A63U U132C,1.98
21,A63G A135U,0.04
22,A63G A135G,1.35
23,A63U U127C,1.25
24,A64U A126G,1.12

row,Variant,self-cleavage
1,A63U A95G,1.78
2,A62U,1.53
3,A62U U100C,2.34
4,A67G,1.1
5,A67C,1.83
6,A67G A117U,0.32
7,A67G A117C,0.17
8,A67G A117G,1.66
9,A66G G83A,1.56
10,A66G U103A,0.32
11,A66G U103C,1.06
12,A66C U131A,1.1
13,A67G A134U,1.12
14,A67G A140U,1.93
15,A66G U122G,2.19
16,A66G U122C,1.67
17,A66G U122A,1.63
18,A66U A78U,0.32
19,A63G U87G,1.35
20,A66G A89G,1.62
21,A63G U131C,1.2
22,A63G U131A,0.45
23,A62G U139C,1.62
24,A62G U139A,1.84

row,Variant,self-cleavage
1,A67C A126G,2.11
2,A63U A82G,0.36
3,G65U U87C,2.23
4,A64G U132A,1.85
5,A64G U132C,1.53
6,A66G U139A,1.72
7,A62G U102A,1.14
8,A64U A92C,1.53
9,A67G C88U,1.97
10,A66G A135G,0.47
11,A62U U103G,0.07
12,A62U U103C,1.23
13,A64U G115A,0.02
14,A67C A89U,2.57
15,A63G U72C,0.27
16,A63G U72A,0.33
17,A62U U102A,0.57
18,A67G A110G,0.11
19,A66U A90G,1.22
20,A62G U127A,1.79
21,A66G U131C,1.04
22,A64G G74A,0.36
23,A64G G74U,0.24
24,A63G C107G,0.01

row,Variant,self-cleavage
1,A63G C107U,0.01
2,A67G A68G,1.5
3,A67G A68C,0.53
4,A66G U124A,1.19
5,A66G U124C,0.76
6,A64U A129G,1.34
7,A67G A78G,0.21
8,A64U U108C,0.02
9,A64G G137A,0.96
10,A66U G75C,0.18
11,A64U U103A,1.08
12,A64U U103C,0.87
13,A66U A125G,0.25
14,A64U C77U,1.56
15,A64G A89U,2.18
16,A66G A67C,1.66
17,A66G A67U,1.61
18,A62U G99A,0.62
19,A64C A95G,2.58
20,A66U U102C,1.8
21,A63G U97C,2.55
22,A62U G73U,0.17
23,A66G A98U,1.08
24,A64U U72C,0.34

row,Variant,self-cleavage
1,A64G U72A,0.35
2,A64G U72C,0.27
3,A64G A134G,1.41
4,A66G A110G,0.15
5,A66G A110C,0.37
6,A66G U72A,0.32
7,A64C A140U,1.86
8,A64G A66U,0.44
9,A64G A66G,1.39
10,A63G A89G,1.89
11,A63G A89U,1.13
12,A63G A118C,1.42
13,A66G G73U,0.3
14,A66U A86C,1.36
15,A63G U130C,1.13
16,A63G U130G,1.92
17,A67G A91U,0.99
18,A62G U132A,1.9
19,A63G A96G,1.4
20,A63G C101A,0.32
21,A62U U131C,1.2
22,A63G,1.41
23,A63U,0.82
24,A63C,1.81

row,Variant,self-cleavage
1,A64G U124C,1.57
2,A63G A69G,1.04
3,A63U U103C,1.58
4,A66U U122C,1.09
5,A62G U72A,0.18
6,A62G U72G,0.22
7,A63U A140U,1.52
8,A63U A118G,1.71
9,A63G A126G,1.13
10,A63G A126U,0.57
11,A66G A116G,0.6
12,A64U A140G,1.39
13,A63G G99A,0.76
14,A63U A98G,0.8
15,A64G A91G,1.33
16,A63G A110C,0.38
17,A63G A110U,1.88
18,A63G A110G,0.15
19,A67C U139C,2.18
20,A66U A96G,1.17
21,A62U A110U,1.27
22,A62U U108A,0.02
23,A63G A111U,0.18
24,A66G A126U,1.54

row,Variant,self-cleavage
1,A66G A129G,0.85
2,A67G A89G,0.82
3,A67G A126U,0.87
4,A63G A90G,1.6
5,A64G A116G,0.61
6,A64G U130C,0.45
7,A64G U131A,0.6
8,A63G A66U,1.49
9,A64G A126C,1.16
10,A66U U127C,0.58
11,A66U G106A,0.02
12,A63U U72C,0.41
13,A63C A126G,0.99
14,A63C A126U,1.62
15,A66U C85U,1.09
16,A66G C105G,0.03
17,A64G A86U,2.21
18,A67G A82U,0.07
19,A63G A94U,0.98
20,A64G G123A,1.66
21,A62U G104A,0.04
22,A64U U87G,0.62
